Assay [1] deals with T1, murine EphA2 on CT-26 cells (mouse, UniProt Q03145 26-977).
T1 construct: whole, on cells
Kind of assay: CLIA: scFv-decorated fluorescent NTA(Ni) liposomes on CT-26 cells, FACS. As for the experimental part:
The concentration of liposomal phospholipid was then determined after acid digestion using spectrophotometric phosphomolybdate method. Prior to incubation with cells the liposomes were diluted to 0.4 mM phospholipid in Hank's Balanced Salt Solution (HBSS), and NiSO₄ was added to 0.1 mM. The hexahistidine scFvs were diluted into cell culture medium (see below) to the concentration of 25 μg/mL of scFv and mixed with equal volume of the liposome solution (“fluorescent NTA-liposome/scFv mixture”).
By measuring fluorescence of the cells prior to and after incubation/wash with imidazole, which disrupts His6/Ni complexes and thereby releases and removes external (but not internalized) histidine-tagged scFv, the percentage of Ab internalized is quantitated. The test cells (human cancer cell lines OVCAR-3 and U-251 and the murine cancer cell line CT-26) were grown in the adherent state in […] cell culture medium supplemented with 10% FBS, 1× penicillin/streptomycin, and L-glutamine, to 90% confluence and harvested using 0.25% trypsin-EDTA. […] The relative amounts of cell-associated liposomes were evaluated by FACS (Cy5 fluorescence channel). The “binding” amount included both cell surface-bound and internalized liposomes and was proportional to cell fluorescence without imidazole wash. […]

Assay [2] has as its target T2, human EphA2 on OVCAR-3 and U-251 cells (human, UniProt P29317 24-976).
T2 construct: whole, on cells; also called EphA2 receptors
Kind of assay: CLIA: scFv-decorated fluorescent NTA(Ni) liposomes on OVCAR-3 and U-251 cells, FACS. The method, then:
To test the anti-EphA2 activity of these variant scFvs, the binding and internalization of liposomes externally decorated with these Abs was assayed on cell lines expressing EphA2. A rapid high-throughput Chelated Ligand-induced Internalization Assay (CLIA) (Nielsen et al., BMC immunology, 2006, 7:24) was used to screen anti-EphA2-scFv-targeted liposomes for binding and internalization assessment. Two cell lines that express high levels of EphA2 receptors, OVCAR-3 and U-251, were tested, as well as a murine EphA2-expressing mouse cell line, CT-26 (to test whether cross-reactivity to murine EphA2 was retained by the engineered scFvs). Via nickel-binding by each scFv's c-terminal His6 tag, the scFvs were bound to fluorescently labeled liposomes comprising an NTA(Ni) conjugated lipid (Dil5-NTA liposomes).
Dil5-NTA liposomes were prepared as follows. The NTA conjugated lipid, DOD-Tri-NTA, was synthesized as described in Huang et al., Bioconjugate chemistry, 2006, vol. 17, p. 1592-1600. […] The concentration of liposomal phospholipid was then determined after acid digestion using spectrophotometric phosphomolybdate method.

T2 sequence (P29317 24-976): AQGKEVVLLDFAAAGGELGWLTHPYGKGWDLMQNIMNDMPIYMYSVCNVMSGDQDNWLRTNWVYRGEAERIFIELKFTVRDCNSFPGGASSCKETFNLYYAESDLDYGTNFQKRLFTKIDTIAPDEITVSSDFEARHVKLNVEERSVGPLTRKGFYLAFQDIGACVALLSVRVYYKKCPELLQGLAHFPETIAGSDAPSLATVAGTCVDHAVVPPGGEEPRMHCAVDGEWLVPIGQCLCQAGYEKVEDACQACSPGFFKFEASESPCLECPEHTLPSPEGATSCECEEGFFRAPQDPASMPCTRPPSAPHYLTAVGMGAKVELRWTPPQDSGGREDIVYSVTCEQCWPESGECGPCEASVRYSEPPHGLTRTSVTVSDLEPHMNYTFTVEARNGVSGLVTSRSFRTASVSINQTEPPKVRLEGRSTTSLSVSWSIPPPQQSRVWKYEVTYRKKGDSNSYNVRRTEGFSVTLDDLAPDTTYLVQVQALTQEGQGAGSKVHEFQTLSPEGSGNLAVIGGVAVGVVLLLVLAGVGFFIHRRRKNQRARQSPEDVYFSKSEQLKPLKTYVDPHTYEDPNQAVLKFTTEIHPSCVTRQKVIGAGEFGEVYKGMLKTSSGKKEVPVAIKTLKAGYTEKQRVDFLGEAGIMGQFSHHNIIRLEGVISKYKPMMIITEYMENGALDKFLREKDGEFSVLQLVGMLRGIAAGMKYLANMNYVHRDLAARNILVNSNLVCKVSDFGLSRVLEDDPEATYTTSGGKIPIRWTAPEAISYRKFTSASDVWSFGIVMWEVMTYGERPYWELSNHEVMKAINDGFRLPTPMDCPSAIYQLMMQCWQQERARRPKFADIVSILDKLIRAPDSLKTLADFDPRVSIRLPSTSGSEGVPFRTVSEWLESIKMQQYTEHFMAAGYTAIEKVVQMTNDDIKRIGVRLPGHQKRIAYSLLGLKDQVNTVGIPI
T1 sequence (Q03145 26-977): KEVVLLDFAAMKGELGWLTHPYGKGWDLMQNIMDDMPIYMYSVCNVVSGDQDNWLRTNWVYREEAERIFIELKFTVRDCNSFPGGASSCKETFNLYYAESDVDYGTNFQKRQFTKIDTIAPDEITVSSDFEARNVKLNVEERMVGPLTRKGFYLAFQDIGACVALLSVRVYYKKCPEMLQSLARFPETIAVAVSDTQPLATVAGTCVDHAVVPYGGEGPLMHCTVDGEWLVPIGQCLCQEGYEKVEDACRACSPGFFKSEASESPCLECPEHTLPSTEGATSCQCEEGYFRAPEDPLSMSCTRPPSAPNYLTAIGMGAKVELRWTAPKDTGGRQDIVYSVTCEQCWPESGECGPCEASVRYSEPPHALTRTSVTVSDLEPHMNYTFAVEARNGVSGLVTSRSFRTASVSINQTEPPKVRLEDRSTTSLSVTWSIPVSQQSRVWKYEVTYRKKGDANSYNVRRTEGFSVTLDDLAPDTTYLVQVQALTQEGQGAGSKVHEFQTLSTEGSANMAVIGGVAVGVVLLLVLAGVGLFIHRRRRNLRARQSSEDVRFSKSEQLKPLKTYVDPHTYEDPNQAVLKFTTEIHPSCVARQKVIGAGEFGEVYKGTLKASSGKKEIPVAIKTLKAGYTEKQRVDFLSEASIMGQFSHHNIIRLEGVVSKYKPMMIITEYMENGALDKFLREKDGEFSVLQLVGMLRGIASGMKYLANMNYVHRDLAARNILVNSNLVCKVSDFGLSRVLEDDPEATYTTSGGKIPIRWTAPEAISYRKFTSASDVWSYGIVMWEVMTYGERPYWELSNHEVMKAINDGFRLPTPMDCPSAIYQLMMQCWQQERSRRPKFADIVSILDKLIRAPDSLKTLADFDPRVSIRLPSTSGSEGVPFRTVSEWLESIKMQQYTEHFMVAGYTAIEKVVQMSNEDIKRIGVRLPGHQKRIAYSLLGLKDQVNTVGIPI

B1: scFv TS1 (scFv)
scFv: QVQLVQSGGGLVQPGGSLRLSCAASGFTFSSYAMHWVRQAPGKGLEWVAVISYDGSNKYYADSVKGRFTISRDNSKNTLYLQMNSLRAEDTAVYYCARASVGATGPFDIWGQGTLVTVSSASTGGGGSGGGGSGGGGSGGGGSSSELTQPPSVSVAPGQTVTITCQGDSLRSYYASWYQQKPGTAPKLLIYGENNRPSGVPDRFSGSSSGTSASLTITGAQAEDEADYYCNSRDSSGTHLTVFGGGTKLTVLG
Consider B1, for which the binding result in assay [1] and in assay [2] was “binds” throughout.

The values are drawn from patent US20170267768A1 (University of California, published 2017).
